Laboratory results reported in patent US20210230266A1 (SINGAPORE HEALTH SERVICES PTE, published 2021).

Experiments:
Human IL-11 [1] = molecular target: T1, Human IL-11 (human, UniProt P20809 22-199); assay: ELISA
T1 construct: Recombinant human IL-11 (GenScript Cat. No. Z03108-1) or IL-11 secreted by human cells; the mature form is said to have 178 residues; also called recombinant human IL-11; endogenously produced IL-11
T1 sequence: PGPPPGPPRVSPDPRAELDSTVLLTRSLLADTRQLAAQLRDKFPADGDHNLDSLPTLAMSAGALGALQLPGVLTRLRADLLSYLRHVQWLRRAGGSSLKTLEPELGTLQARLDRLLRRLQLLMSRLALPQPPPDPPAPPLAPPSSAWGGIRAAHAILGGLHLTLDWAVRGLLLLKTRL
Experimental: (§1) The soluble scFv were produced by recombinant expression in E. coli, and analysed for their ability to bind to human IL-11 and murine IL-11 by ELISA. Briefly, the respective antigen was coated to wells of an ELISA plate, the cell culture supernatant containing the respective scFv was added at a 1:2 dilution, and binding was detected.

Mouse IL-11 = molecular target: T2, Mouse IL-11 (mouse, UniProt P47873 22-199, limits assumed); assay: ELISA
T2 construct: also called murine IL-11; recombinant murine IL-11
T2 sequence (looked up): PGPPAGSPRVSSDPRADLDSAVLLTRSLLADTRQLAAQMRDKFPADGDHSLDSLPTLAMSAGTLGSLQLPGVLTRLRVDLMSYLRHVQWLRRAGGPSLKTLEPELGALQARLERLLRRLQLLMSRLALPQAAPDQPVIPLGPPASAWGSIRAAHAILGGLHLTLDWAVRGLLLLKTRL
Experimental: as §1

Human IL-11 [2] = molecular target: T1, Human IL-11; assay: cell-based or functional assay
Human IL-11 [3] = molecular target: T1, Human IL-11; assay: ELISA on coated recombinant human IL-11 (100 ng/well), scFv-Fc
Experimental: The light chain shuffled anti-IL-11 antibodies were analysed to determine the EC50 for binding to human IL-11 by ELISA according to standard methods. Briefly, wells of microtiter plates were coated with recombinant human IL-11 (100 ng/well), scFv-Fc comprising the VH and VL domains of the clones were added in a dilution series and antibody binding was detected using a polyclonal antibody detection system.

Binder | hIL11 - average signal (Human IL-11 [1]) | mIL11 - average signal (Mouse IL-11) | MMP2 production, Experiment 1 (human atrial fibroblasts + TGFB1) (Human IL-11 [2]) | MMP2 production, Experiment 2 (human atrial fibroblasts + TGFB1) (Human IL-11 [2]) | EC50 (Human IL-11 [3])
YU112-A07 (antibody) QVQLVESGGGVVQPGRSLRLSCAASGFTFSSYGMHWVRQAPGKGLEWVAVISYDGSNKYYTDSVKGRFTISRDNSKNTLYLQMNSLRAEDTAVYYCAKIGATDPLDYWGQGTLVTVSSGSASAPKLEEGEFSEARVQSALTQPRSVSGSPGQSVTISCTGTISDVGGYNYVSWYQQHPGKAPKLMIYDVTKRPSGVPDRFSGSKSGNTASLTISGLQAEDEAGYYCSSYAGSYTWVFGGGTELTVL | 0.438 | 0.612 | 50.7 ng/mL | 45 ng/mL | 0.025 µg/mL
YU112-B06 (antibody) QVQLVESGGGVVQPGRSLRLSCAASGFTFSSYGMHWVRQAPGKGLEWVAVISYDGSNKYYADSVKGRFTISRDNSKNTLYLQMNSLRAEDTAVYYCAKIGATDPLDYWGQGTLVTVSSGSASAPKLEEGEFSEARVQSALTQPASVSGSPGQSITISCTGTSSDVGGYNYVSWYQQHPGKAPKLMIYDVSNRPSGVSNRFSGSKSGNTASLTIFGLQAEDEADYYCSSYTSSSSWVFGGGTKLTVL | 0.756 | 0.622 | 49.7 ng/mL | 43.9 ng/mL | 0.02 µg/mL
YU112-C03 (antibody) QVQLVESGGGVVQPGRSLRLSCAASGFTFSSYGMHWVRQAPGKGLEWVAVISYDGSNKYYADSVKGRFTISRDNSKNTLYLQMNSLRAEDTAVYYCAKGGKSYYGFDYWGQGTLVTVSSGSASAPKLEEGEFSEARVDSVMTQSPSSLSASVGDRVTITCRASQAINSYLNWYQQKPGKAPKLLIYAASSLQSGVPSRFSGSGSGTDFTLTISGLQPEDFATYYCQQSYSTPSWTFGQGTKVEIK | 0.566 | 0.445 | 57.6 ng/mL | 53.3 ng/mL | 0.017 µg/mL
YU112-C05 (antibody) EVQLVESGGGVVQPGRSLRLSCAASGFTFSSYAMHWVRQAPGKGLEWVAVISYDGSNKYYADSVKGRFTISRDNSKNTLYLQMNSLRAEDTAVYYCARIMGYDYGDYDVVDYWGQGTLVTVSSGSASAPKLEEGEFSEARVQSALTQPRSVSGSPGQSVTISCTGTISDVGGYNYVSWYQQHPGKAPKLMIYDVTKRPSGVPDRFSGSKSGNTASLTISGLQAEDEAGYYCSSYAGSYTWVFGGGTELTVL | 0.458 | 0.685 | 55.2 ng/mL | 50.1 ng/mL | 0.012 µg/mL
YU112-D08 (antibody) QVQLVESGGGVVQPGRSLRLSCAASGFTFSSYGMHWVRQAPGKGLEWVAVISYDGSNKYYADSVEGRFTISRDNSKNTLYLQMNSLRAEDTAVYYCAKIGATDPLDYWGQGTLVTVSSGSASAPKLEEGEFSEARVQSALTQPRSVSGSPGQSVTISCTGTISDVGGYNYVSWYQQHPGKAPKLMIYDVTKRPSGVPDRFSGSKSGNTASLTISGLQAEDEAGYYCSSYAGSYTWVFGGGTELTVL | 0.418 | 0.723 | 50.3 ng/mL | 42.5 ng/mL | 0.018 µg/mL
YU100-A10 (antibody) EVQLVESGGGVVQPGRSLRLSCAASGFTFSSYGMHWVRQAPGKGLEWVAVISYDGSNKYYADSVKGRFTISRDNSKNTLYLQMNSLRAEDTAVYYCAKIGATDPLDYWGQGTLVTVSSGSASAPKLEEGEFSEARVLPVLTQPASVSGSPGQSITISCTGTSSDVGAYNYVSWYQQHPGKAPELMIYDVSNRPSGVSNRFSGSKSGNTASLTISGLQPEDEADYYCSSFTTSIAWVFGGGTKLTVL | 0.443 | 0.54 | 52.1 ng/mL | 50.1 ng/mL | 0.023 µg/mL
YU100-A11 (antibody) EVQLQQSGGGVVQPGRSLRLSCAASGFTFSSYGMHWVRQAPGKGLEWVAVISYDGSNKYYADSVKGRFTISRDNSKNTLYLQMNSLRAEDTAVYYCAKIGATDPLDYWGQGTLVTVSSGSASAPKLEEGEFSEARVQSALTQPRSVSGSPGQSVTISCTGTSSDVGGYNYVSWYQQHPGKAPKLMIYDVSKRPSGVPDRFSGSKSGNTASLTISGLQAEDEADYYCCSYAGSYTWVFGGGTKLTVL | 0.333 | 0.372 | 51.6 ng/mL | 45.7 ng/mL | 0.02 µg/mL
YU100-A12 (antibody) QVQLVESGGGVVQPGRSLRLSCAASGFTFSSYGMHWVRQAPGKGLEWVAVISYDGSNKYYADSVKGRFTISRDNSKNTLYLQMNSLRAEDTAVYYCAKIGATDPLDYWGQGTLVTVSSGSASAPKLEEGEFSEARVLPVLTQPRSVSGSPGQSVTISCTGTSSDVGGYNYVSWYQQHPGKAPKLMIYDVSKRPSGVPDRFSGSKSGDTASLTISGLQAEDEADYYCSSYAGSYTWVFGGGTKLTVL | 0.32 | 0.388 | 59.5 ng/mL | 50.4 ng/mL | 0.023 µg/mL
YU100-B01 (antibody) QVQLVQSGGGVVQPGRSLRLSCAASGFTFSSYGMHWVRQAPGKGLEWVAVISYDGSNKYYADSVKGRFTISRDNSKNTLYLQMNSLRAEDTAVYYCAKIGATDPLDYWGQGTLVTVSSGSASAPKLEEGEFSEARVQSALTQPRSVSGSPGQSVTISCTGTNTDVGAYNYVSWYQQYPGKAPKLIIYDVSKRPSGVPDRFSGSKSGNTASLTISGLQAEDEADYYCCSYAGSYSWVFGGGTKLTVL | 0.187 | 0.175 | 52.5 ng/mL | 40 ng/mL | 0.023 µg/mL

The remaining lines, values ahead:

hIL11 - average signal (Human IL-11 [1]) | mIL11 - average signal (Mouse IL-11) | MMP2 production, Experiment 1 (human atrial fibroblasts + TGFB1) (Human IL-11 [2]) | MMP2 production, Experiment 2 (human atrial fibroblasts + TGFB1) (Human IL-11 [2]) | EC50 (Human IL-11 [3]) | Binder
0.863 | 0.601 | 53.9 ng/mL | 48.5 ng/mL | 0.04 µg/mL | YU112-F05 (antibody) EVQLVQSGGGVVQPGRSLRLSCAASGFTFGSYGMHWVRQAPGKGLEWVAVISYDGSNKYYADSVKGRFTISRDNSKNTLYLQMNSLRAEDTAVYYCAKIGATDPLDYWGQGTLVTVSSGSASAPKLEEGEFSEARVQSALTQPRSVSGSPGQSVTISCTGTSSDVGGYNYVSWYQQHPGKAPKLIIYDVNNRPSGVSNRFSASKSGNTASLTISGLQAEDEADYYCNSYTSGSTWVFGGGTKLTVL
0.664 | 0.762 | 55 ng/mL | 47.8 ng/mL | 0.017 µg/mL | YU112-G06 (antibody) QVQLQESGGGVVQPGRSLRLSCAASGFTFSSYGMHWVRQAPGKGLEWVAVISYDGSNKYYADSVKGRFTISRDNSKNTLYLQMNSLRAEDTAVYYCAKIGATDPLDYWGQGTLVTVSSGSASAPKLEEGEFSEARVQSALTQPRSVSGSPGQSVTISCTGTISDVGGYNYVSWYQQHPGKAPKLMIYDVTKRRSGVPDRFSGSKSGNTASLTISGLQAEDEAGYYCSSYAGGYTWVFGGGTELTVL
1.23 | 1.18 | 51.9 ng/mL | 47.7 ng/mL | 0.02 µg/mL | YU112-H01 (antibody) QVQLVESGGGVVQPGRSLRLSCAASGFTFGSYGMHWVRQAPGKGLEWVAVISYDGSNKYYADSVKGRFTISRDNSKNTLYLQMNSLRAEDTAVYYCAKGSYYFDYWGQGTLVTVSSGSASAPKLEEGEFSEARVETTLTQSPGTLSLSPGERATLSCRASQSVSSSYLAWYQQKPGQAPRLLIYGASSRATGIPDRFSGSGSGTDFTLTISSLQPDDFATYYCQQSYSTPTWTFGQGTKVEIK
0.606 | 0.785 | 65.3 ng/mL | 58 ng/mL | 0.02 µg/mL | YU112-H02 (antibody) QVQLVESGGGVVQPGRSLRLSCAASGFTFSSYGMHWVRQAPGKGLEWVAVISYDGSNKYYADSVKGRFTISRDNSKNTLYLQMNSLRAEDTAVYYCAKLSGPNGVDYWGQGTLVTVSSGSASAPKLEEGEFSEARVQPVLTQPRSVSGSPGQSVTISCTGTSSDVGGYNYVSWYQQHPGKAPKVMIYDVSKRPSGVPDRFSGSKSGNTASLTISGLQAEDEADYYCCSYAGSYTWVFGGGTKLTVL
